Patent US20240254222A1 (Bayer, published 2024)
Substitutions are numbered along the chain they refer to.

T1: Human Semaphorin3A-Sema Domain, TPP-19068 (human, UniProt Q14563 21-569)
T1 construct: produced inhouse in HEK293-6E; also called human monovalent Sema3A domain
T1 sequence: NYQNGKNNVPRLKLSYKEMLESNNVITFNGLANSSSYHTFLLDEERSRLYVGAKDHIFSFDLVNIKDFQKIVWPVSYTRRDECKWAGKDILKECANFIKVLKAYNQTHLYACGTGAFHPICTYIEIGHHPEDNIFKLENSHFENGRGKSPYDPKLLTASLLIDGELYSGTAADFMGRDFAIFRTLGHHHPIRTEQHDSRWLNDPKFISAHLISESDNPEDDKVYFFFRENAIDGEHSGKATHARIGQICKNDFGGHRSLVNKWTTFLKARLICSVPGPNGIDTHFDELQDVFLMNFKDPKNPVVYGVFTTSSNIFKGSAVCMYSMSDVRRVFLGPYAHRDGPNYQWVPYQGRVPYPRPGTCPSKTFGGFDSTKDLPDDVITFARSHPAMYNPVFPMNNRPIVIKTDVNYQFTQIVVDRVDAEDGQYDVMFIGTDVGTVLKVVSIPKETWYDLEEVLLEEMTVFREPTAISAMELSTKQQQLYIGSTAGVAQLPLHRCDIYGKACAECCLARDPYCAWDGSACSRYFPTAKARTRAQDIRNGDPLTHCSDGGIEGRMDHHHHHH

B1: TPP-31357 (Fab, V domains shown)
V domain 1: EVQLLESGGGLVQPGGSLRLSCAASGFTFRSYAVHWVRQAPGKGLEWVSSTEGSGVGTSYTDSVKGRFTISRDNSKNTLYLQMNSLRAEDTAVYYCARMLGGGNPLDYLDYWGQGTLVTVSS
V domain 2: QSVLTQPPSASGTPGQRVTISCSGSSSNLGEGYDVHWYQQLPGKAPKLLIYYSDFRPSGVSDRFSGSKSGTSASLAISGLQSEDEADYYCAAWDDSLSSQVFGGGTQVTVLG
notes: Fab heavy chain entry carries myc and His tags; also called Fab of 3H4 Univ Ramot
B2: TPP-25448 (antibody, human IgG1, lambda, V domains shown)
VH: EVQLLESGGGLVQPGGSLRLSCAASGFTFDSYEMNWVRQAPGKGLEWVSGISWNSGWIDYADSVKGRFTISRDNSKNTLYLQMNSLRAEDTAVYYCARSGYSSSWFDPDFDYWGQGTLVTVSS
VL: QSVLTQPPSVSGAPGQRVTISCTGSSSDIGAGYDVHWYQQLPGTAPKLLIYGNSNRPSGVPDRFSGSKSGTSASLAITGLQAEDEADYYCQSYAGINPYVVFGGGTKLTVLG
B3: TPP-26111 (antibody, human IgG1, lambda, V domains shown)
VH: B2 VH
VL: B2 VL with D28N, Q91S, I96P
B4: TPP-25655 (antibody, human IgG1, lambda, V domains shown)
VH: B2 VH with T28D, D30S
VL: B2 VL with D28N, N53A, Q91S, A94E, I96P
B5: TPP-25497 (antibody, human IgG1, lambda, V domains shown)
VH: B2 VH with T28D
VL: B2 VL with Q91S, A94E
B6: TPP-15051 (antibody, mouse IgG1)
heavy: EVQLLESGGGLVQPGGSLRLSCAASGFTFSSYPMGWVRQAPGKGLEWVAGIDDDGDSDTRYAPAVKGRATISRDNSKNTVYLQMNSLRAEDTAVYYCAKHTGIGANSAGSIDAWGQGTLVTVSSAKTTPPSVYPLAPGSAAQTNSMVTLGCLVKGYFPEPVTVTWNSGSLSSGVHTFPAVLQSDLYTLSSSVTVPSSTWPSETVTCNVAHPASSTKVDKKIVPRDCGCKPCICTVPEVSSVFIFPPKPKDVLTITLTPKVTCVVVDISKDDPEVQFSWFVDDVEVHTAQTQPREEQFNSTFRSVSELPIMHQDWLNGKEFKCRVNSAAFPAPIEKTISKTKGRPKAPQVYTIPPPKEQMAKDKVSLTCMITDFFPEDITVEWQWNGQPAENYKNTQPIMDTDGSYFVYSKLNVQKSNWEAGNTFTCSVLHEGLHNHHTEKSLSHSPGK
light: SYELTQPPSVSVSPGQTARITCSGGGSYTGSYYYGWYQQKPGQAPVTVIYYNNKRPSDIPERFSGSLSGTTNTLTISGVQAEDEADYYCGSADNSGDAFGTGTKVTVLGQPKSSPSVTLFPPSSEELETNKATLVCTITDFYPGVVTVDWKVDGTPVTQGMETTQPSKQSNNKYMASSYLTLTARAWERHSSYSCQVTHEGHTVEKSLSRADCS

Assays:
[1] = target: T1, Human Semaphorin3A-Sema Domain, …; assay: SPR, 100 nM TPP-19068, binding experiment
Experimental: (§1) To assess the binding kinetics and affinity of anti-Sema3A antibodies as well as their species cross-reactivity profile, binding assays were conducted using surface plasmon resonance (SPR). Binding assays were performed on a Biacore T200 instrument or on a Biacore 8K+ instrument (Cytiva) at 25° C. using assay buffer HBS P+, 300 mM NaCl, 0.75 mM CaCl₂, 2.5 mM MgCl₂, 1 mg/ml BSA, 0.05% NaN₃. Antibodies were captured either via anti-human Fc IgGs (“Human antibody capture kit”, Order No. BR100839, Cytiva) or in case of Fc-tagged analytes by anti-human Fab IgGs (“Human Fab capture kit”, Order No. 28958325, Cytiva) covalently amine coupled to a Series S CM5 sensor chip (Cytiva). The amine coupling was carried out according to the manufacturer's instructions using 1-ethyl-3-(3-dimethylaminopropyl) carbodiimide hydrochloride (EDC), N-hydroxysuccinimide (NHS) and ethanolamine HCl, pH 8.5 (“Amine Coupling Kit” BR-1000-50, Cytiva.). For phage display hits Fc-tagged human and mouse Sema3A was used as analytes in a concentration range from 1.56-200 nM. Human, mouse, cynomolgus, rat, dog and pig monovalent Sema3A domain were used as analytes in a concentration series from […] in multi cycle kinetics mode or in 100 nM for binding analysis only. The sensor surface was regenerated with glycine pH 2.0 after each antigen injection. Obtained sensorgrams were double referenced (subtraction of reference flow cell signal and buffer injection) and were fitted to a 1:1 Langmuir binding model to derive kinetic data using the Biacore T200 Evaluation software.

[2] = target: T2, Human Semaphorin3A-Fc (R&D Systems), TPP-13211 (human); assay: competition ELISA on coated TPP-13211, competitor biotinylated TPP-15374
T2 construct: R&D Systems 1250-S3; also called recombinant human Sema3A-Fc chimera
Experimental: For screening in a competition ELISA setup, human Sema3a (TPP-13211) was coated onto 384-well plates (Greiner bio-one, 781077) with a concentration of 0.5 μg/ml in coating buffer (Carbonate-Basis pH 9.6, Candor 121125) over night at 10° C. After washing the plates 3 times with 50 μl PBS 0.05% Tween the plates were blocked with 50 μl Smart Block® (Candor 113500) for 1 h at 20° C. and washed again 3 times as described.
Subsequently, 20 μl of pre-mixed antibody solution was added to the plates and incubate for 18 h at 10° C. […] The total concentration of the added antibody solution was 0.25 μg/ml. During the incubation time the antibodies bound to the plates in a competitive manner as they compete for the same epitope on the human Sema3A protein.
After subsequent washing with 50 μl PBS 0.05% Tween for 3 times, 20 μl of a Streptavidin-HRP solution (R&D Systems, DY998, 1:200 in PBS 0.05% Tween 10% Smart Block) were added and incubated for 1 h and 20° C. followed by subsequent washing 3 times with 50 μl PBS 0.05% Tween and addition of 20 μl Amplex Red solution (Invitrogen A12222, 1:1000 in NaP-buffer 50 mM pH7.6 with 1:10000 of 30% H2O2). After a final incubation for 20 min at 20° C. the signal was determined using an emission wavelength of 595 nm and excitation of 530 nm.

[3] = target: T1, Human Semaphorin3A-Sema Domain, …; assay: SPR, captured antibody, Sema3A domain analyte
Experimental: as §1

[4] = target: T2, Human Semaphorin3A-Fc (R&D Systems), …; assay: cell-based or functional assay
[5] = target: T2, Human Semaphorin3A-Fc (R&D Systems), …; assay: cell-based or functional assay; remark: listed apart in the source

T2 sequence (chain, as listed by the source limits assumed): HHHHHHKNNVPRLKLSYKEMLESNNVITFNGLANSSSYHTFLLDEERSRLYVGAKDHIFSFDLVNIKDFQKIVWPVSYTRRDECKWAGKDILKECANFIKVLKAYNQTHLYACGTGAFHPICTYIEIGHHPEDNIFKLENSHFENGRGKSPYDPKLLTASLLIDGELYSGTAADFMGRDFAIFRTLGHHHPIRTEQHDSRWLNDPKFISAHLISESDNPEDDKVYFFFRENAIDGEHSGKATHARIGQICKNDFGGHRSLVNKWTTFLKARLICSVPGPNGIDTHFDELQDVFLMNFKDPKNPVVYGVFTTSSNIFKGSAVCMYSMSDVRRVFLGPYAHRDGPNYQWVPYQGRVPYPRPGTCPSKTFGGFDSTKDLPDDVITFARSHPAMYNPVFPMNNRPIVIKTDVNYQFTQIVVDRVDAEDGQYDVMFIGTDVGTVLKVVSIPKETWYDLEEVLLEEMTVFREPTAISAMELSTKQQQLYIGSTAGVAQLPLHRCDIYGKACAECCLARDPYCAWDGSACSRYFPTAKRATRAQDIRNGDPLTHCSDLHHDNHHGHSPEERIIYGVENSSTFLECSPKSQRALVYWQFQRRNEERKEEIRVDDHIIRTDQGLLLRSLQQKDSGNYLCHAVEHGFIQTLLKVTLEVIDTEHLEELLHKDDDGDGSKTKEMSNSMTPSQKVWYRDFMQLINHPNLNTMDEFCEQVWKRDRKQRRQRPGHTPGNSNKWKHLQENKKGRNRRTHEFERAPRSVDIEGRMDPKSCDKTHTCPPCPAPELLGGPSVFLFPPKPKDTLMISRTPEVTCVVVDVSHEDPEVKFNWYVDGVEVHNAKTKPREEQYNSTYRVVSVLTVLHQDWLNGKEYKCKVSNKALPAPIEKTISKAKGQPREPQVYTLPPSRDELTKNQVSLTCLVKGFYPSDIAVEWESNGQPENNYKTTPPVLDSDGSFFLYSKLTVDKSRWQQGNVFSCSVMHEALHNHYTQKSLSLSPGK

Binder	Kd [1] [pM]	VAL norm to TPP-9809 (1 to 1 ratio) [2]	VAL norm to TPP-9809 (1 to 5 ratio) [2]	Kd [3] [pM]	EC50 (nM), GCC assay [4] [nM]	EC50 [nM], MCM assay [5] [nM]
B1	350	–	–	–	–	–
B2	–	0.47	0.19	53	–	–
B3	–	0.49	0.18	52	–	–
B4	–	0.39	0.23	49	–	–
B5	–	0.39	0.26	52	–	–
B6	–	–	–	–	243	42.9
